Data on three molecules can be found in paper PMC4393884 (Structure (London, England : 1993), 2014).

T1: truncated PR-B (233-933) (human, UniProt P06401 233-933)
T1 sequence (looked up): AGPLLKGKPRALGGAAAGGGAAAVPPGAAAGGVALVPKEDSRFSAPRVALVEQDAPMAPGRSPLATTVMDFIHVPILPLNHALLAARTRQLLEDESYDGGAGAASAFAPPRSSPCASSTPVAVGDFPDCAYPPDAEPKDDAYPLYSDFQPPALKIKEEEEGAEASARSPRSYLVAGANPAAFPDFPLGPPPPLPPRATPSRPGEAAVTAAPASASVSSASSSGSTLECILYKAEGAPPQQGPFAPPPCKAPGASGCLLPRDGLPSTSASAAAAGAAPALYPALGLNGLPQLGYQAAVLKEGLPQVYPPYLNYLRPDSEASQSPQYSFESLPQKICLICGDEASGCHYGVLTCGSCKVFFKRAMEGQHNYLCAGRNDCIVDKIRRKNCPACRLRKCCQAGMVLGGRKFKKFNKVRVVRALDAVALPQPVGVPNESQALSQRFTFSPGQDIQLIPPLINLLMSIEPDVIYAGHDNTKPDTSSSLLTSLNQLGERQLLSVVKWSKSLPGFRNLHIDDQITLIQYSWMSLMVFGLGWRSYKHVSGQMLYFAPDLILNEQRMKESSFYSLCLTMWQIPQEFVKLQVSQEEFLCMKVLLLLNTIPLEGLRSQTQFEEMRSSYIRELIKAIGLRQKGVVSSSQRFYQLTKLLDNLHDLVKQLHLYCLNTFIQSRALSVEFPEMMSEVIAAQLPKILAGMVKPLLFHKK

B1: full length progesterone receptor isoform B (PR-B) (receptor, human, UniProt P06401 1-933, looked up)
chain: MTELKAKGPRAPHVAGGPPSPEVGSPLLCRPAAGPFPGSQTSDTLPEVSAIPISLDGLLFPRPCQGQDPSDEKTQDQQSLSDVEGAYSRAEATRGAGGSSSSPPEKDSGLLDSVLDTLLAPSGPGQSQPSPPACEVTSSWCLFGPELPEDPPAAPATQRVLSPLMSRSGCKVGDSSGTAAAHKVLPRGLSPARQLLLPASESPHWSGAPVKPSPQAAAVEVEEEDGSESEESAGPLLKGKPRALGGAAAGGGAAAVPPGAAAGGVALVPKEDSRFSAPRVALVEQDAPMAPGRSPLATTVMDFIHVPILPLNHALLAARTRQLLEDESYDGGAGAASAFAPPRSSPCASSTPVAVGDFPDCAYPPDAEPKDDAYPLYSDFQPPALKIKEEEEGAEASARSPRSYLVAGANPAAFPDFPLGPPPPLPPRATPSRPGEAAVTAAPASASVSSASSSGSTLECILYKAEGAPPQQGPFAPPPCKAPGASGCLLPRDGLPSTSASAAAAGAAPALYPALGLNGLPQLGYQAAVLKEGLPQVYPPYLNYLRPDSEASQSPQYSFESLPQKICLICGDEASGCHYGVLTCGSCKVFFKRAMEGQHNYLCAGRNDCIVDKIRRKNCPACRLRKCCQAGMVLGGRKFKKFNKVRVVRALDAVALPQPVGVPNESQALSQRFTFSPGQDIQLIPPLINLLMSIEPDVIYAGHDNTKPDTSSSLLTSLNQLGERQLLSVVKWSKSLPGFRNLHIDDQITLIQYSWMSLMVFGLGWRSYKHVSGQMLYFAPDLILNEQRMKESSFYSLCLTMWQIPQEFVKLQVSQEEFLCMKVLLLLNTIPLEGLRSQTQFEEMRSSYIRELIKAIGLRQKGVVSSSQRFYQLTKLLDNLHDLVKQLHLYCLNTFIQSRALSVEFPEMMSEVIAAQLPKILAGMVKPLLFHKK
B2: full length progesterone receptor isoform A (PR-A) (receptor, human, UniProt P06401-2 1-769, looked up)
chain: MSRSGCKVGDSSGTAAAHKVLPRGLSPARQLLLPASESPHWSGAPVKPSPQAAAVEVEEEDGSESEESAGPLLKGKPRALGGAAAGGGAAAVPPGAAAGGVALVPKEDSRFSAPRVALVEQDAPMAPGRSPLATTVMDFIHVPILPLNHALLAARTRQLLEDESYDGGAGAASAFAPPRSSPCASSTPVAVGDFPDCAYPPDAEPKDDAYPLYSDFQPPALKIKEEEEGAEASARSPRSYLVAGANPAAFPDFPLGPPPPLPPRATPSRPGEAAVTAAPASASVSSASSSGSTLECILYKAEGAPPQQGPFAPPPCKAPGASGCLLPRDGLPSTSASAAAAGAAPALYPALGLNGLPQLGYQAAVLKEGLPQVYPPYLNYLRPDSEASQSPQYSFESLPQKICLICGDEASGCHYGVLTCGSCKVFFKRAMEGQHNYLCAGRNDCIVDKIRRKNCPACRLRKCCQAGMVLGGRKFKKFNKVRVVRALDAVALPQPVGVPNESQALSQRFTFSPGQDIQLIPPLINLLMSIEPDVIYAGHDNTKPDTSSSLLTSLNQLGERQLLSVVKWSKSLPGFRNLHIDDQITLIQYSWMSLMVFGLGWRSYKHVSGQMLYFAPDLILNEQRMKESSFYSLCLTMWQIPQEFVKLQVSQEEFLCMKVLLLLNTIPLEGLRSQTQFEEMRSSYIRELIKAIGLRQKGVVSSSQRFYQLTKLLDNLHDLVKQLHLYCLNTFIQSRALSVEFPEMMSEVIAAQLPKILAGMVKPLLFHKK
B3: C-terminal core DNA binding domain (aa 159-339) of human TATA-binding protein (TBPc) (domain or fragment, UniProt P20226 159-339, looked up)
chain: SGIVPQLQNIVSTVNLGCKLDLKTIALRARNAEYNPKRFAAVIMRIREPRTTALIFSSGKMVCTGAKSEEQSRLAARKYARVVQKLGFPAKFLDFKIQNMVGSCDVKFPIRLEGLVLTHQQFSSYEPELFPGLIYRMIKPRIVLLIFVSGKVVLTGAKVRAEIYEAFENIYPILKGFRKTT

The data set “SEC” concerns the molecule itself. The data set is described as follows: SEC.
Another data set addresses T1, truncated PR-B (233-933). Briefly: HDX-MS.
The target in data set [1] is B2. Briefly: HDX-MS.
For data set [2], the target named is B1. Briefly: HDX-MS.

As to B1, the “stoichiometry N” value in the data set “SEC” was 2. Consider B2, for which, in “SEC”, the “stoichiometry N” value was 2.

Turning to B3, the binding result (with truncated PR-B (233-933); in data set [1]; in data set [2]) was “binds” in each case.
